Test results as given in patent US20110262358A1 (SAPPORO MEDICAL UNIVERSITY, published 2011).
Non-standard residues stand in square brackets, D forms with d. No end group written: not given here.

Biological target: T1, HLA-A24 molecule (HLA-A2402) expressed on T2-A24 cells (human)
T1 construct: whole, on cells; MHC class I molecule on T2-A24 cells
Assay: HLA-A24 stabilisation on T2A24 cells, flow cytometry with anti-HLA-A24 antibody

Binder | binding result
FYGTGFGVYL [or7c1_251(10)] | binds
HYTV[code i]MNPQL (Synthetic OR7C1-derived peptide, printed HYTViMNPQL with a lower-case i) [or7c1_131(10)] | binds
TYAGCLSQIF (also called peptide 93(10)) [or7c1_93(10)] | binds

The next lines start with the values.

binding result | Binder
binds | MYLVTFTGNL [or7c1_34(10)]
binds | MYTMVTPML [or7c1_277(9)]
